Source: US20150086562A1

Biological target: recombinant CD22 extracellular domain
Assay: The sheet does not state the method. The column 'KD (nM)' stands beside the confocal data. The values largely repeat FIGURE 18 (SPR on recombinant CD22 extracellular domain), so the target form is taken from there.

recombinant CD22 extracellular domain, sequence (chain, as listed by the source limits assumed): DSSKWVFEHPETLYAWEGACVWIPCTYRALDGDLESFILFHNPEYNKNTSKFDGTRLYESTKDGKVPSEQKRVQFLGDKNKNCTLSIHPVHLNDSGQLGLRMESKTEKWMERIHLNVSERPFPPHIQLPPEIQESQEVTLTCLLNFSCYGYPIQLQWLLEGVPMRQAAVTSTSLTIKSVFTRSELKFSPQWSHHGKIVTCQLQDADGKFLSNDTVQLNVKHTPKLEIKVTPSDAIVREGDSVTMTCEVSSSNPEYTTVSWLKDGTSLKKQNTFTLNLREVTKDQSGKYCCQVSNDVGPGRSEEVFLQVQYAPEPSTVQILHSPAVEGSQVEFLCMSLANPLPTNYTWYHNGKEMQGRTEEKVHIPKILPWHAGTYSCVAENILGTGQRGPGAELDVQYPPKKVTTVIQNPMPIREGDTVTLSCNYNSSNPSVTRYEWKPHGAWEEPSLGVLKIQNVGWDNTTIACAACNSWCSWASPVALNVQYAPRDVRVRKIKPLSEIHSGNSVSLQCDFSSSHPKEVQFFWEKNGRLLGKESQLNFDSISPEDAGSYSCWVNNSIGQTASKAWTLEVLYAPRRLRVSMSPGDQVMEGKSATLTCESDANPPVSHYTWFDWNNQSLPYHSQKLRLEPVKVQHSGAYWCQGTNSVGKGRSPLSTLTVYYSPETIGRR

LL2 (mouse Mab) (antibody)
Kd: 20 nM
